Experimental data from the DeepSol protein solubility set.

Test: soluble on expression in E. coli; label from the status in PepcDB or PDB records

| Sequence | soluble on expression in E. coli |
| --- | --- |
| MVIRRTYMARDNTYYLDEALYISAQAPTGIELSFIGGGGPGSGGWGLSDGYPRGTSPTKNDIARVISTRRVLTEEFQIIEKDYSDKYAHETNQLPETINALKAQIKAEASSTNGAASPFVTEQQILSSRISQIRDGYLQILPDANNYFGVPAFYKRGDSMMSRFLDPGFFAATTGQELGVEWATRLQKSWEGTYRLHLEAQKHQALADELRALASQVDQEELSQQPLDLLQVIARRTAQIHTERQIHFDCLPNVLQHELGQTVIDDTLTLVQTFSTYLATAAALVQAKQSQIPPYQDQNPRINSPLSKPQLEGLLHLVDEQRLRRAGPRWQEYHLALALTESIRFLGVYAGATQNLMQRAAEVENLQAQLAAQEEAARQQAEAERLAAEAERQRQEALRRSVSYINEARLAVSTPAVIPIGATTFAVAEAAYSALAESIAAALTRLVATTVPSVAVGTLAMAWPSTLGNSERQYLISTPLDSLSPAGGPDLAALAASSTSIDLPYLLAGVENENELDLYVVPSGKPVAVRAATFDSERQVYSLALDNPQRILTWTPASAPGGDEGNSTSLPLVPPGTVVYTGSSLNPVVTEQEGYPALDLLDQERLIITFPMDSGLPPILVVFKSPRYEAGTSTGHGAQVSDTWRKEAASLEGAPIPAQIAELLKSREFRNFDAFRRQFWKAVANDPELSKQFDEMSLSRMRKNGYSPIVDFPDSHLSQKTFILHHVIPISEGGGVYDMDNIRIVTPLSHNSIHYGTKPLEHHHHHH | not soluble |
| MGHHHHHHHHHHSSGHIEGRHMDINGVLLLDKPQGMSSNDALQKVKRIYNANRAGHTGALDPLATGMLPICLGEATKFSQYLLDSDKRYRVIARLGQRTDTSDADGQIVEERPVTFSAEQLAAALDTFRGDIEQIPSMYSALKYQGKKLYEYARQGIEVPREARPITVYELLFIRHEGNELELEIHCSKGTYIRTIIDDLGEKLGCGAHVIYLRRLAVSKYPVERMVTLEHLRELVEQAEQQDIPAAELLDPLLMPMDSPASDYPVVNLPLTSSVYFKNGNPVRTSGAPLEGLVRVTEGENGKFIGMGEIDDEGRVAPRRLVVEYPA | soluble |
| SNAMTKPMIQIALDQTNLTDAVAVASNVASYVDVIEVGTILAFAEGMKAVSTLRHNHPNHILVCDMKTTDGGAILSRMAFEAGADWITVSAAAHIATIAACKKVADELNGEIQIEIYGNWTMQDAKAWVDLGITQAIYHRSRDAELAGIGWTTDDLDKMRQLSALGIELSITGGIVPEDIYLFEGIKTKTFIAGRALAGAEGQQTAAALREQIDRFWP | soluble |
| MGSDKIHHHHHHMNSLQFPRHGDKENSAFFEEYLVKLLEERDAMGLTAMVHEIDALMITVDPGHSVKYVAELCFMTSYHYLVTLESESHWTHVLRIDLDSPDLLVREVKDPNLRGIFRSLNEIYPVGARKPNSRYMGEIIRVNNLHDVVKLQQEREFRFFTQDEVRKLELPGNLAVSKPSPYTHNIVAYLERKPDEMRVYSLGVSRVDAELQMAYEAAKRLQEKLNFADLLLPIDHLATRVYSQNREVAILEYLSWSSYYFWGAYNIFDQNSSTNVTKSAHGLPESKSPAKVFTANNTPYFVNHLEKLPSPTETFVRNYGPRLHHIAVAVRDGERDGLEHIEFAVNAIASQGKGFLLDVIGSREEGLKQIFSNASEHSSLIVEYVQRFGDFQGFFTKENVAVLTEAAGREEGVKSGASLG | not soluble |
| MGSDKIHHHHHHMTTTNGIDGSYYYENRPKEQSNSGILGKDDFLRILIAQLQYQDPLNPMDDREFIAQMAQFSSLEQMTNMNSAIQQFVKQQTSQTLVQHSELIGKRVTWKRIIDIDEYRQKEELVENTVTSVRLETNGNVSIQLDSGRWISADQLVQVSGKTNHQEEAEGDVGDNAPDEQEG | not soluble |
| MGSDKIHHHHHHMDEETRRAVATADEALPTSDALPDAIDTGRVVFGFDGYLDRVREVVADRIDPESHERLATLESFGDRIDRSVAADSSLSFEWLQQGSRTGGHTSHLARAFGGWSFDPVMVGMYGDPVHDAFETEFGEYELHSLGEPGVTDAVEFDDGKLMLTEIGDTMSLDWAELDTAFGHDRLAEKLDGASLLGTGYWSETPDLPTVFDGLRTLWDGIDDPPETVLVDPGDVRKLDADRLRAGREAIGRLDEVTDVVVTSNRAETGVLADAYAGDAERSFADDAEAVFEALEPTWFVGHGVEQSVVVTAAGTDSVAVPSVSDPELTTSSGDHFNAGLGLARIADLSPAAAVVVGNAVAGYFVRTADQPSLADVRAFVDEYLEKF | not soluble |
| SAAPMSNVDEIRDRVILGEFGVKNVHTTDYPGNYPGYDDTWDFEKFKKNFRIEIISSDENTLEFDMIGIDAAIANAFRRILLAEVPTMAIEKVFIYNNTSIIQDEILAHRLGLVPIKADPRLFEYRNSEDQEGTEIDTIQLQLKVKCTRNPRAPKDSSDPKELYLNHMIYSGDIKWLPIGNQADVFADAKIGPVHGDILLAQVRPGQELDIVMHCVKGIGKDHAKFSPVATASYRLLPEITLLQTIEGEQAERLKRCFSPGVIELENVNGRKVAKVVNSRLDTCSREVLRHDDLKSLVKLGRVRDHFIFSVESTGILPPDVLVTEAINVLMSKCQKFLTELEATEMD | soluble |
| MIDENLIKINLICESQDEVFHYLATLVVDNGYANNTESVVQALKLRESEGTTGMMEGFAIPHAKDKSIVKPSIAILKLKTGVEWHSMDGQLINNVIALFIPEKEAGTTHLKVLSQIARLLVNKTFKEKIKEADTILELKELLTEKLDLTS | not soluble |
| MSLKNPCNAEFQNFCIHGECKYIEHLEAVTCKCQQEYFGERCGEKSMKTHSMIDSSEGHHHHHH | not soluble |
| MSLSNMTQQTRTQQARETMKRVYRYQAANQTRSVIRRSGKTRFIKDTDWERGVFWSCVAAAWLATDDAEYLEGVMNYTLHTGFRPGPNLRFADDLICCQAYLDVWPQIAVPEALEPTIKAVSAMVDEPKPGREDWWWCDSLFMAPATFAALSQRTGDARYLAYMDTAFWDAVDYLRDPDSGLFYRDHRYIPDGNGTELREENGEKVFWSRGIGWVLAAIPRLLARMPEDYTGRQRYLDLFTDLADKVIRYQQADGLWRTSLLDPQRFPAPESSATALFCYGLSWGINQGILAPETYLPVVEKAWDALQGCIHDNGMMGWVQLPAFNPRDVKFEHNMDYGAGAYLLAASEMLRLAEGHHHHHH | soluble |
| REIGENTYIVEGSMTLNDFNEHFDTELESDDVDTIAGYYLTGVGAIPTQEVKEHYEVINKDKRLEFINDKVKDGRVTKLKVIITAAPEEAGE | not soluble |
| MGSDKIHHHHHHMGCGVTVANASVYALPVRGNIVGALEAVTTHRDDTLLDIGRFYDLGYNQVTAANPGVNPWLPGQASKVVIPAEYILPPKPWTGIIVDIPARRIYYFPVNDRVVYTYPVGVFLPGWKEALTDTRIIAKFKMPAWNVPKNIHAWFEKKFHMDIPWYWPPGPENPMGELAMETGLSGIFIHGTYHPWGVGMRASQGCFQMFPENVAQLFPMVPVGTPVRIIDQPNLVGVRDGQVYLQSYKPMHAYHKKGIPELQRAVVTIKSFMERNRIEERIDWGMVRRIVTEHNTVALPIGVGAPSYATLSAALPATPYAYAPYGPSANGAAVPPPLPLASAADQEHLHVQVTFPDQKP | not soluble |
| MSLQFIGAGLGRTGTLSLKLALERLGVGRCYHAMELAANLRQDLPQWESAIDGRPDWDRIFAGYAATTDYPGCCFWMELAARYPHAKVILTVRDPDAWFDSVSATIFSGSNNLPSLFGSRGQRLSQFLRRDLGARLGERAFMTDYFRRWNQAVITHIPAPRLLVLDTDTESSWERLCAFLALPVPAFPYPRVHMRGASVPQRPLPTEPALIEQRMRTYLDRLAEEAFAPPTAPLEHHHHHH | soluble |
| MSLQEPFSQLESEIQVLKSHIANISGLSVPKNVLKNADGSTLKSLSEASLKVIEKTIRITAHAVNLKLRIETDIANLKNQIKLLTETKEQQDALSKALEASSTLVKLEDRHERLTERIQALEKKIDEAIRQLSYKESMPLSKEEKLWIREVNGINALLNNAGEDSLALKIEDLKVQVTALSQNEHSANEHLTDAEIQKRQNSIILAKLSLWLQNDLEKLDEVKQSVTDCIRRLREGHHHHHH | soluble |
| NLSASNRALPVLTLFTKAPCPLCDEAKEVLQPYKDRFILQEVDITLPENSTWYERYKFDIPVFHLNGQFLMMHRVNTSKLEKQLRKL | soluble |
| MAKNFAEQIVESLENQGVKRIYGLVGDSLNPIVDAVRTSNIEWIHVRNEETAAFAAEAESLLTGELAVCAASCGPGNTHLVQGLYDANRNGAKVLAIASHIPSRQIGSHFFQETHPEALFAECSGYCEMANSALQGEVILHHAIQSTMAGKGVSVLVLPGDVTMQDVEDDTFTGSRISNARPIMYPDPAEAADLVKAINEAKTVTLFCGAGVRYARKEVLELAEKIKAPIGHALGGKMYIQYDNPFDVGMSGLLGYGACHDASNDADLLILLGTDFPYNDFLPRKNVAQIDIDGSHIGRRTRISHPVVGDVAATISNILPHIEEKTDRSFLDRMLKKHHRKLNDVIEAYTSGVEKHTPIHPEFVANIIDEIAADDAVFTIDTGMCNVWGARYITPNGKREMIGSFRHGTMANALPQAIGASAANPRRQVVTFSGDGGLGMLMGELLTVKLHNLPIKTVVFNNSSLGMVKLEMLVQGMPEHETDHEHVDFDAIAAAVGIEHIKITDPAKARQQLQAAFDYDGPVLIDIITDPNALSIPPNITMDMLMGFSRAATRTVFGGGVGHMVDMAKSNLRNIPKP | not soluble |
| MSRRLFGRLREALNRASEHIARGIVDTLAYKELKPEDLEPVLDDILIDLVESDVALEAAESIVAGVKEGLTGYRVRRGEPVEKVVRDALRKALLTLLDPGPRPDLAAEARRRCGGRPLVILFLGVNGTGKTTTIAKVAYMLRKAGVTPVIAAADTFRAGAQEQLAVHAEKLGVPIVRGRYGGDPASVAYDAVKHAESRGFCAVLVDTAGRMHVDSNLVEELRKIVRVVKPDYKILVVDSLTGNDAVEQARLFDEAVGVDGVIVTKVDADPKGGTLVSVAHAIRKPILYIGTGQRYEDLRPFDPQKIVDQLLG | soluble |
| MGSDKIHHHHHHFEEVNTDPDSPTDVPTTNLLAYSLYYTSYRLYDRWFAMDEPMTFCGYASKMTYIDESRYNFRTGVQDTNWEYLYRILNNLKDIEKRATFNETPNMLNVSKVMQVHLMQVATDRWRDVPYTDAAKMTDGILQPKYDKQEDIYPGLLATLKEAADGFADGGSDDLGEGDLLFGGDIEKWQRYCNSMRLRLAMRISEVSPALAKETVEEVMGNPTKYPIMESNDDNAFFWWIGTDPNYYEPMADGYRTRKTEYCAADVIVDHMNTREDPRRSSYFQPTKESVEAGEPKYVGYTIGAKANAVASKYSIWGARFFTDLAGFSPYMRVAEPWFCVAEASMLGWNTGISAEDAYNKAVTYSMEENSVSAEDIADYLANAGKFTNDKKQIYYEEWVAMFKQGMEGWSLYRRTGVPDNLYPAPGRPANYSNHNVPPFRSPYPDKERNLNNANCAPFDAEVVDNLWGKQMWWDTRTGVH | not soluble |
| MIDLENQEREIINLMFSQRISWLAAVRIRHKLSLAEVSKMLGISINSLKQIEKTERLSSNIKSKMAEIYGCPPELLICPSWMTAEHK | not soluble |
| MGSDKIHHHHHHMRRQLNGQMFVWLHVFACAARHLSFTRCAEELHITPGAVSQQMRQLEERLGYRLFLRRARGVELSAEGQRLAQTVAEAYGSIEAELLRLDAGEIRGTLRVRSIPSFLAKWLTPRLPRFQQRYPDIELRLVAEDSAQALTPGDFDLAIDLNDGSYPGMLSTPLLDEQIFPVCSPALLRGRPPLHGPADLAHYPLLHDITAWRGSSEYAEWEFYLEGIGAAGLDVRRGHTFNRNHLTIEAAIAGIGVAIARRTLLNDELERGALIVPFGVPIANHKRYVVHYPPGGLNQPGARAVHDWLVEEARGFRVLHPLNKE | not soluble |
